Laboratory results reported in paper PMC8069203, “Highly Sensitive Electrochemical Aptasensor for Detecting the VEGF165 Tumor Marker with PANI/CNT Nanocomposites”.

Target: VEGF165 (UniProt P15692-4 27-191)
Experiment: electrochemical aptasensor; PANI/CNT electrode; linear 0.5 pg/mL to 1 ug/mL, LOD 0.4 pg/mL (not a Kd); PBS rinsing, ferri/ferrocyanide redox probe; aptamer immobilized on PANI/CNT screen-printed carbon electrode; pH, salt and temperature not given in the material
Conditions: protein: commercial; chain copies: 2

Chain of VEGF165 (P15692 other isoform, or with tags, fused parts or gaps): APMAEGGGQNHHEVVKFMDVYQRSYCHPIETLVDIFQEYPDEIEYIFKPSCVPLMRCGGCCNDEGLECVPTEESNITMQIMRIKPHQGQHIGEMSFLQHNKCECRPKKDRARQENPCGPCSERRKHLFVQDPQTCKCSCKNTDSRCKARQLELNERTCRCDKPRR

B1: anti-VEGF165 RNA aptamer (structured_RNA)
RNA: AUGCAGUUUGAGAAGUCGCGCAU
modifications: 5'-NH2, coupled by amide bond to PANI/CNT carboxyl groups (DMT-MM)
Q: Does B1 bind?
A: Result: binds
